Reference: paper PMC12862363, “AURKB-driven dissolution of CIZ1–RNA assemblies from the inactive X chromosome in mitosis” (Nucleic Acids Research, 2026)
Values belong to the molecule of their own block, whether it stands above or below them.

Key:
[1] = test system: C179WT (hCIZ1 C-terminal fragment) (Homo sapiens); experiment: EMSA; settings: 0.66 nM RNA; yeast tRNA 0.1 mg/ml; 10 mM Tris-HCl pH 7, 30 mM NaCl, 2.5 mM MgCl2, 0.1% IGEPAL CA-630, 0.1 mg/ml yeast tRNA, 1.5% RNaseOUT, 0.2 mM EDTA, 0.2 mM DTT, 30 C 20 min; 0.8% agarose/TBE …
[2] = molecular target: human CIZ1-C179Δtail (human) (UniProt Q9ULV3); experiment: SEC-MALS; SEC-MALLS; 100 µl of >1 mg/ml purified protein, Superdex S200 10/300 GL, cleavage buffer (50 mM Tris-HCl pH 7, 150 mM NaCl, 1 mM EDTA, 1 mM DTT), 0.5 ml/min, room temperature (20 ± 2°C)
[3] = molecular target: murine CIZ1 fragment C181 (mouse) (UniProt Q8VEH2); experiment: as above
[4] = molecular target: the molecule itself; experiment: as above

Molecule: Xist repeat E RNA probe
binding signal (% probe shifted at 5 µM protein) [1]: 99

B1: human CIZ1-C179 (domain or fragment, UniProt Q9ULV3-1 720-898, looked up)
chain: EKEIAGQDEDHFITVDAVGCFEGDEEEEEDDEDEEEIEVEEELCKQVRSRDISREEWKGSETYSPNTAYGVDFLVPVMGYICRICHKFYHSNSGAQLSHCKSLGHFENLQKYKAAKNPSPTTRPVSRRCAINARNALTALFTSSGRPPSQPNTQDKTPSKVTARPSQPPLPRRSTRLKT
notes: the terminal residue is printed as Thr 898; also called hC179; C179WT; source: E. coli BL21 RP CodonPlus, purified (GSTrap, on-column PreScission cleavage, Superdex 200); not shown: GST, N-terminal, cleaved
stoichiometry N [4]: 2

Other lines, results leading:

stoichiometry N [2]: 2
Molecule: human CIZ1-C179Δtail (from UniProt Q9ULV3-1 720-860) (domain or fragment)

stoichiometry N [3]: 2
Molecule: murine CIZ1 fragment C181 (from UniProt Q8VEH2 665-845) (domain or fragment)
